Assay results reported in US20170072013A1 (MEDINCELL, published 2017).
Square brackets hold non-standard residues; d marks the D form.

T1: human TREK-1 potassium channel expressed in the h-TREK-1/HEK cell line (human, UniProt O95069 1-426)
T1 sequence (looked up): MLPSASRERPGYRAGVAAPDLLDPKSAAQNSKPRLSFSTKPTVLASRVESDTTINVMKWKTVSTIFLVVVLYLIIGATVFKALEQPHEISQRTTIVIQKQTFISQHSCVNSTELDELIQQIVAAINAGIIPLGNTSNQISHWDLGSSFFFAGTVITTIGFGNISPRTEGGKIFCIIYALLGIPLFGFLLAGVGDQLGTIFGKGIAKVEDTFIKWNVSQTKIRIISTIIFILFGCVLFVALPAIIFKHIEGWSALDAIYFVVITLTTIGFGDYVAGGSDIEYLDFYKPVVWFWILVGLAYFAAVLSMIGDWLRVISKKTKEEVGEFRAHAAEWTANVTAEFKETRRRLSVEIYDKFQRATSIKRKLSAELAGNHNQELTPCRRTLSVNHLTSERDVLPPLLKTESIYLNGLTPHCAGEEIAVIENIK

B1: Analog 15 (SEQ ID NO:20), c(rlGwsvGipGswrplpa) (peptide)
peptide: cyclo([dR][dL]G[dW][dS][dV]G[dI][dP]G[dS][dW][dR][dP][dL][dP][dA])
SMILES: CC[C@@H](C)[C@H]1NC(=O)CNC(=O)[C@@H](C(C)C)NC(=O)[C@@H](CO)NC(=O)[C@@H](Cc2c[nH]c3ccccc23)NC(=O)CNC(=O)[C@@H](CC(C)C)NC(=O)[C@@H](CCCNC(=N)N)NC(=O)[C@@H](C)NC(=O)[C@H]2CCCN2C(=O)[C@@H](CC(C)C)NC(=O)[C@H]2CCCN2C(=O)[C@@H](CCCNC(=N)N)NC(=O)[C@@H](Cc2c[nH]c3ccccc23)NC(=O)[C@@H](CO)NC(=O)CNC(=O)[C@H]2CCCN2C1=O
B2: Analog 14 (SEQ ID NO:15), Ac-rlawsvaipaswrplpa-NH2 (peptide)
peptide: Ac-[dR][dL][dA][dW][dS][dV][dA][dI][dP][dA][dS][dW][dR][dP][dL][dP][dA]-NH2
SMILES: CC[C@@H](C)[C@@H](NC(=O)[C@@H](C)NC(=O)[C@H](NC(=O)[C@@H](CO)NC(=O)[C@@H](Cc1c[nH]c2ccccc12)NC(=O)[C@@H](C)NC(=O)[C@@H](CC(C)C)NC(=O)[C@@H](CCCNC(=N)N)NC(C)=O)C(C)C)C(=O)N1CCC[C@@H]1C(=O)N[C@H](C)C(=O)N[C@H](CO)C(=O)N[C@H](Cc1c[nH]c2ccccc12)C(=O)N[C@H](CCCNC(=N)N)C(=O)N1CCC[C@@H]1C(=O)N[C@H](CC(C)C)C(=O)N1CCC[C@@H]1C(=O)N[C@H](C)C(N)=O
B3: Analog 16 (SEQ ID NO:21), c(rlGwsvGipGswrplparlGwsvGipGswrplpa) (peptide)
peptide: cyclo([dR][dL]G[dW][dS][dV]G[dI][dP]G[dS][dW][dR][dP][dL][dP][dA][dR][dL]G[dW][dS][dV]G[dI][dP]G[dS][dW][dR][dP][dL][dP][dA])
SMILES: CC[C@@H](C)[C@H]1NC(=O)CNC(=O)[C@@H](C(C)C)NC(=O)[C@@H](CO)NC(=O)[C@@H](Cc2c[nH]c3ccccc23)NC(=O)CNC(=O)[C@@H](CC(C)C)NC(=O)[C@@H](CCCNC(=N)N)NC(=O)[C@@H](C)NC(=O)[C@H]2CCCN2C(=O)[C@@H](CC(C)C)NC(=O)[C@H]2CCCN2C(=O)[C@@H](CCCNC(=N)N)NC(=O)[C@@H](Cc2c[nH]c3ccccc23)NC(=O)[C@@H](CO)NC(=O)CNC(=O)[C@H]2CCCN2C(=O)[C@@H]([C@H](C)CC)NC(=O)CNC(=O)[C@@H](C(C)C)NC(=O)[C@@H](CO)NC(=O)[C@@H](Cc2c[nH]c3ccccc23)NC(=O)CNC(=O)[C@@H](CC(C)C)NC(=O)[C@@H](CCCNC(=N)N)NC(=O)[C@@H](C)NC(=O)[C@H]2CCCN2C(=O)[C@@H](CC(C)C)NC(=O)[C@H]2CCCN2C(=O)[C@@H](CCCNC(=N)N)NC(=O)[C@@H](Cc2c[nH]c3ccccc23)NC(=O)[C@@H](CO)NC(=O)CNC(=O)[C@H]2CCCN2C1=O
B4: Analog 3 (SEQ ID NO:4), Ac-rlGwsvGipGswrplpa-NH2 (peptide)
peptide: Ac-[dR][dL]G[dW][dS][dV]G[dI][dP]G[dS][dW][dR][dP][dL][dP][dA]-NH2
SMILES: CC[C@@H](C)[C@@H](NC(=O)CNC(=O)[C@H](NC(=O)[C@@H](CO)NC(=O)[C@@H](Cc1c[nH]c2ccccc12)NC(=O)CNC(=O)[C@@H](CC(C)C)NC(=O)[C@@H](CCCNC(=N)N)NC(C)=O)C(C)C)C(=O)N1CCC[C@@H]1C(=O)NCC(=O)N[C@H](CO)C(=O)N[C@H](Cc1c[nH]c2ccccc12)C(=O)N[C@H](CCCNC(=N)N)C(=O)N1CCC[C@@H]1C(=O)N[C@H](CC(C)C)C(=O)N1CCC[C@@H]1C(=O)N[C@H](C)C(N)=O
B5: Analog 8 (SEQ ID NO:9), Ac-rlGwsvGipGswrplpaappppadlrdq-NH2 (peptide)
peptide: Ac-[dR][dL]G[dW][dS][dV]G[dI][dP]G[dS][dW][dR][dP][dL][dP][dA][dA][dP][dP][dP][dP][dA][dD][dL][dR][dD][dQ]-NH2
SMILES: CC[C@@H](C)[C@@H](NC(=O)CNC(=O)[C@H](NC(=O)[C@@H](CO)NC(=O)[C@@H](Cc1c[nH]c2ccccc12)NC(=O)CNC(=O)[C@@H](CC(C)C)NC(=O)[C@@H](CCCNC(=N)N)NC(C)=O)C(C)C)C(=O)N1CCC[C@@H]1C(=O)NCC(=O)N[C@H](CO)C(=O)N[C@H](Cc1c[nH]c2ccccc12)C(=O)N[C@H](CCCNC(=N)N)C(=O)N1CCC[C@@H]1C(=O)N[C@H](CC(C)C)C(=O)N1CCC[C@@H]1C(=O)N[C@H](C)C(=O)N[C@H](C)C(=O)N1CCC[C@@H]1C(=O)N1CCC[C@@H]1C(=O)N1CCC[C@@H]1C(=O)N1CCC[C@@H]1C(=O)N[C@H](C)C(=O)N[C@H](CC(=O)O)C(=O)N[C@H](CC(C)C)C(=O)N[C@H](CCCNC(=N)N)C(=O)N[C@H](CC(=O)O)C(=O)N[C@H](CCC(N)=O)C(N)=O

Molecular target: T1, human TREK-1 potassium channel …
Test: cell-based or functional assay

Row | Binder | IC50 of TREK-1 current inhibition (dose-response, whole cell patch clamp, 0 mV) [nM] | fold higher affinity for TREK-1 channels than spadin, inferred from the IC50 of current inhibition [fold]
1 | B1 | 0.04 | 
2 | B2 | 0.004 | 
3 | Ac-APLPRWSGPIGVSWGLR-NH2 [Analog 2 (SEQ ID NO:3), Ac-APLPRWSGPIGVSWGLR-NH2] | 60 | 
4 | B3 | 0.001 | 
5 | B4 | 11.5 | 6
6 | B5 | 9.95 | 6
7 | Ac-APLPRWSAPIAVSWALR-NH2 [Analog 13 (SEQ ID NO:14), Ac-APLPRWSAPIAVSWALR-NH2] | 0.04 | 
